Reference: US20220306713A1
One block for each molecule: values may come before it.

Columns and labels:
[1] = biological target: mouse PD-L1 on the surface of mouse tumor cell lines A20 and CT26 (mouse) (UniProt Q9EP73); assay: flow cytometry, PE-labelled protein, 0.5 ug in 100 ul, A20 cells (high PD-L1), after Fc block; A20-Blank X-AMean 76.61
[2] = biological target: mouse PD-L1 on the surface of mouse tumor cell lines A20 and CT26 (mouse) (UniProt Q9EP73); assay: flow cytometry, PE-labelled protein, 2.5 ug in 100 ul, A20 cells (high PD-L1), after Fc block; A20-Blank X-AMean 76.61
[3] = biological target: mouse PD-L1 on the surface of mouse tumor cell lines A20 and CT26 (mouse) (UniProt Q9EP73); assay: flow cytometry, PE-labelled protein, 2.5 ug in 100 ul, CT26 cells (low PD-L1), after Fc block; CT26-Blank X-AMean printed 254.50
[4] = biological target: recombinant human PD-L1 antigen (human) (UniProt Q9NZQ7); assay: SPR (Biacore T200), antibody captured on anti-human IgG Fc CM5 chip, recombinant human PD-L1 as analyte, 1:1 Langmuir fit
[5] = biological target: recombinant human PD-1 antigen (human) (UniProt Q15116); assay: SPR (Biacore T200), antibody captured on anti-human IgG Fc CM5 chip, recombinant human PD-1 as analyte, 1:1 Langmuir fit
Sequence of UniProt Q15116 (Q15116 25-167 limits assumed): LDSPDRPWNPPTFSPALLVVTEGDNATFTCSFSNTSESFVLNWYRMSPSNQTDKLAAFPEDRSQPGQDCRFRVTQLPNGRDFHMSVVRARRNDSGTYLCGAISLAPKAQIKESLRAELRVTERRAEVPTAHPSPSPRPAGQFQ

Sequence of UniProt Q9EP73 (Q9EP73 19-290): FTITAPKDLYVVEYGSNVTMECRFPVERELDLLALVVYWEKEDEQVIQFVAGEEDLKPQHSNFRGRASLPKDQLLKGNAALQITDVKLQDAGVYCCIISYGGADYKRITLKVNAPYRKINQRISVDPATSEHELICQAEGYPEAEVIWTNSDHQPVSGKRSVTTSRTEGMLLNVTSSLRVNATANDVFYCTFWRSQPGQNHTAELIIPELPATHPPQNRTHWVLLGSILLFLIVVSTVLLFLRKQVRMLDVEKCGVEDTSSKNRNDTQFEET
Sequence of UniProt Q9NZQ7 (Q9NZQ7 19-238 limits assumed): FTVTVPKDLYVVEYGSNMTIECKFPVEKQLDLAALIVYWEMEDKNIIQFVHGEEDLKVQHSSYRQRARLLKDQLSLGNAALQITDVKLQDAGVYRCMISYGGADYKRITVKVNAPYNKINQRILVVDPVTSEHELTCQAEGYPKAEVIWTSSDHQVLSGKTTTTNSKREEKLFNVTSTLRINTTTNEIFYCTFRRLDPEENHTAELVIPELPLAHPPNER

X-AMean [1]: 1830
X-AMean [2]: 5930
X-AMean [3]: 590
Molecule: anti-PD-L1(10F.9G2) antibody-HC-mIL-10 fusion protein (from UniProt P18893 19-178)

X-AMean [1]: 949
X-AMean [2]: 4990
X-AMean [3]: 885
Molecule: rat-anti-mouse PD-L1 monoclonal antibody 10F.9G2

Kd [4]: 0.29 nM
koff [4]: 0.000779 s⁻¹
kon [4]: 2.65e+06 M⁻¹ s⁻¹
B1: anti-human PD-L1 antibody 5G11 (antibody, from another filing, V domains shown)
VH: QVQLKQSGPGLVQPSQSLSITCTVSGFSLTTYGVHWVRQSPGKGLEWLGVIWRGVTTDYNAAFMSRLTITKDNSKSQVFFKMNSLQANDTAIYYCARLGFYAMDYWGQGTSVTVSS
VL: SIVMTQTPKFLLVSAGDRVTITCKASQSVSNDVAWYQQKPGQSPKLLIYYAANRYTGVPDRFTGSGYGTDFTFTISIVQAEDLAVYFCQQDYTSPYTFGGGTKLEIK

Kd [5]: 0.83 nM
koff [5]: 0.000806 s⁻¹
kon [5]: 974000 M⁻¹ s⁻¹
B2: anti-human PD-1 antibody 7A4D (antibody, from another filing, V domains shown)
VH: QIQLVQSGSELKKPGASVKVSCKASGYTFTNFGMNWVRQAPGQGLKWMGWISGYTREPTYAADFKGRFVISLDTSVSTAYLQISSLKAEDTAVYYCARDVFDYWGQGTLVTVSS
VL: DIVLTQSPASLAVSPGQRATITCRASESVDNYGYSFMNWFQQKPGQPPKLLIYRASNLESGVPARFSGSGSRTDFTLTINPVEADDTANYYCQQSNADPTFGQGTKLEIKR
